This note sets out measurements from article doi:10.1101/2025.07.22.666130 (bioRxiv, 2025).

Where two headings read alike, the source gives them in different places.

To fix the notation:
B5: 15N-labeled RAD52-CTD (217-418), GST tag cleaved (domain or fragment)
chain: PQLQQVTSPSRPSHAVIPADQDCSSRSLSSSAVESEATHQRKLRQKQLQQQFRERMEKQQVRVSTPSAEKSEAAPPAPPVTHSTPVTVSEPLLEKDFLAGVTQELIKTLEDNSEKWAVTPDAGDGVVKPSSRADPAQTSDTLALNNQMVTQNRTPHSVCHQKPQAKSGSWDLQTYSADQRTTGNWESHRKSQDMKKRKYDPS
modifications: uniformly 15N labeled

Data set [1] deals with T1, RAD52-CTD (UniProt P43351 217-418).
T1 sequence: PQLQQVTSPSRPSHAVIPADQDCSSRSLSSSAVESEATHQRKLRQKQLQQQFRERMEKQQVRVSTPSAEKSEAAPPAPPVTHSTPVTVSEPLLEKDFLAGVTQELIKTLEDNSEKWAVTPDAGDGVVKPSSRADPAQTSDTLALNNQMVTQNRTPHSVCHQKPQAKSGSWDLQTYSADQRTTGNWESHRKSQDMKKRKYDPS
As to the kind of experiment: EMSA.

The target of data set [2] is T2, RAD52 full length (UniProt P43351 1-418).
T2 sequence: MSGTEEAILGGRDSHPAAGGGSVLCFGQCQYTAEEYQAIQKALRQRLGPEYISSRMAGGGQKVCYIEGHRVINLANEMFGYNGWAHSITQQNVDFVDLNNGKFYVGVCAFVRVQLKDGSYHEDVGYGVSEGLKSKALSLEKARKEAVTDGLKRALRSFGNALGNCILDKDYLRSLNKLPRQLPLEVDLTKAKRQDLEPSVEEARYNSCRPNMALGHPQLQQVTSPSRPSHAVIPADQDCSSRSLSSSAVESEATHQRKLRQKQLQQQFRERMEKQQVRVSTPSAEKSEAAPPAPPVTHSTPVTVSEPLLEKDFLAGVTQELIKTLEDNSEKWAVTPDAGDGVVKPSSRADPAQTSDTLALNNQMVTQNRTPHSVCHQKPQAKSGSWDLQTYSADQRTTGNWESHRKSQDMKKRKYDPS
Briefly: EMSA.

The target in data set [3] is T1, RAD52-CTD. Briefly: EMSA. This is another data set of the same source. Background: Mobility shift assays separate free from complexed probe on a gel.
For data set [4], the target named is T2, RAD52 full length. As to the kind of experiment: EMSA. This is another data set of the same source.
Data set [5] addresses RPA heterotrimer (RPA70:RPA32:RPA14) (human, UniProt P27694;P15927;P35244 1-616;1-270;1-121). As to the kind of experiment: EMSA.
Data set [6] addresses T3, full-length RPA trimer (RPA70:RPA14:RPA32) (human, UniProt P27694;P15927;P35244). Briefly: pull-down.
Data set [7] addresses T3, full-length RPA trimer …. Briefly: pull-down. The source holds these as a separate data set.
Data set [8] deals with T3, full-length RPA trimer …. As to the kind of experiment: NMR titration.
In data set [9] the target is B5. As to the kind of experiment: NMR titration.

T3 sequence (P15927 whole entry, chain 2 of 2): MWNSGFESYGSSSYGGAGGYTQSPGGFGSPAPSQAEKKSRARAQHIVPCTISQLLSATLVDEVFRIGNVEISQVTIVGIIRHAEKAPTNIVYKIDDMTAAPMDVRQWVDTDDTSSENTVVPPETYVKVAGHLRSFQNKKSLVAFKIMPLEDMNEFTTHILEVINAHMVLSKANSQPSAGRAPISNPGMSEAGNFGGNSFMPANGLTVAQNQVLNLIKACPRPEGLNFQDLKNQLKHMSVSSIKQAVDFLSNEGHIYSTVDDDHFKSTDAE
T3 sequence (P35244 whole entry, chain 3 of 2): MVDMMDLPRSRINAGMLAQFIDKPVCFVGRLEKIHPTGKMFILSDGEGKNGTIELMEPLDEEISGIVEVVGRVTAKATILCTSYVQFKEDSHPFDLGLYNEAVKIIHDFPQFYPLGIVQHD
Chain of RPA heterotrimer (RPA70:RPA32:RPA14) (P15927 whole entry, chain 2 of 2): as the sequence (P15927 whole entry, chain 2 of 2) above
Chain of RPA heterotrimer (RPA70:RPA32:RPA14) (P35244 whole entry, chain 3 of 2): as the sequence (P35244 whole entry, chain 3 of 2) above

B1: no. 1 63-mer ssDNA (ssDNA)
DNA: ACAGCACCAGATTCAGCAATTAAGCTCTAAGCCATCCGCAAAAATGACCTCTTATCAAAAGGA
As for B1, the binding result with RAD52-CTD [1] is listed as “no binding”; with RAD52 full length [2], “binds”.

B2: no. 517 63-mer RNA (ssRNA)
RNA: UCCUUUUGAUAAGAGGUCAUUUUUGCGGAUGGCUUAGAGCUUAAUUGCUGAAUCUGGUGCUGU
Take B2: the figures for the binding result (with RAD52-CTD [3]; with RAD52 full length [4]; in [5]) were “no binding”, “binds” and “binds”, respectively.

B3: GST-tagged RAD52 CTD (217-418) wild type (domain or fragment)
chain: PQLQQVTSPSRPSHAVIPADQDCSSRSLSSSAVESEATHQRKLRQKQLQQQFRERMEKQQVRVSTPSAEKSEAAPPAPPVTHSTPVTVSEPLLEKDFLAGVTQELIKTLEDNSEKWAVTPDAGDGVVKPSSRADPAQTSDTLALNNQMVTQNRTPHSVCHQKPQAKSGSWDLQTYSADQRTTGNWESHRKSQDMKKRKYDPS
For B3, the binding result in data set [6] is listed as “binds”.

B4: GST-tagged RAD52 CTD (217-418) L314A/V317N/L321Q/I322Q/L325A/W332A (domain or fragment, human, UniProt P43351 217-418, looked up)
chain: PQLQQVTSPSRPSHAVIPADQDCSSRSLSSSAVESEATHQRKLRQKQLQQQFRERMEKQQVRVSTPSAEKSEAAPPAPPVTHSTPVTVSEPLLEKDFAAGNTQEQQKTAEDNSEKAAVTPDAGDGVVKPSSRADPAQTSDTLALNNQMVTQNRTPHSVCHQKPQAKSGSWDLQTYSADQRTTGNWESHRKSQDMKKRKYDPS
In the case of B4, the binding result in [7] was “binds”.

On to B5, for which, in [8], the binding result is “binds”.

B6: Human RPA70N (1-120) (domain or fragment)
chain: MVGQLSEGAIAAIMQKGDTNIKPILQVINIRPITTGNSPPRYRLLMSDGLNTLSSFMLATQLNPLVEEEQLSSNCVCQIHRFIVNTLKDGRRVVILMELEVLKSAEAVGVKIGNPVPYNE
For B6, the binding result in [9] is listed as “binds”.
